From paper PMC6179999

What was measured:
[1] = system: P27467; assay: AUC; AUC-FDS of GFP-Wnt3a in culture medium with mock-treated serum; peak areas normalised by the whole area
[2] = system: P27467; assay: AUC; AUC-FDS; conditioned medium of L cells secreting GFP-Wnt3a co-cultured with HEK293 cells secreting mouse sFRP2
[3] = system: P27467; assay: AUC; AUC-FDS of GFP-Wnt3a in culture medium with serum from which afamin was immuno-depleted before the cultivation; peak areas normalised by the whole area

GFP-tagged mouse Wnt3a secreted from stably transformed mouse L cells
relative area of the HMW peaks, mock-treated serum [1]: that of the HMW peaks was increased from 51.1 ± 4.8% to 69.6 ± 1.2%
relative area of HMW complex peaks, with sFRP2 [2]: relative area of HMG peaks was decreased from 46.4 ± 0.8% to 33.6 ± 2.9% by the addition of sFRP2
relative area of the HMW peaks, afamin pre-depleted serum [3]: that of the HMW peaks was increased from 51.1 ± 4.8% to 69.6 ± 1.2%
